Data taken from patent US20250313621A1 (NXERA PHARMA UK, published 2025).

Key:
[1] = biological target: T1, PAR2-3: P157: 1-377, glycosylated, pBacMamHisStrepII, full length (human, UniProt P55085 26-377); assay: SPR Biacore T200; IgG captured on anti-human IgG, 250 nM PAR2 analyte; 1:1 model
T1 construct: detergent-solubilised analyte in SPR, or on infected cells in flow cytometry; also called FL-N PAR2 StaR; FL-N StaR; not shown: C-terminal StrepII and deca-histidine tags
T1 sequence: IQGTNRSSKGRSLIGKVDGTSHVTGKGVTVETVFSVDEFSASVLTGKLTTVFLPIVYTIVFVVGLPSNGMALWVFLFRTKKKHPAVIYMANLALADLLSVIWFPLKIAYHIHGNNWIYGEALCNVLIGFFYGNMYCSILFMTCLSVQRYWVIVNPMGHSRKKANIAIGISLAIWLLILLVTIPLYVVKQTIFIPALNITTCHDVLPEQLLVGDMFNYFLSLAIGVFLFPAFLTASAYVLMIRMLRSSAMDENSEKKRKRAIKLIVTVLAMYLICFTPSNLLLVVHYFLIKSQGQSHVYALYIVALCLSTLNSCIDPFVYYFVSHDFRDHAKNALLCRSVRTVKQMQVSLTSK
Method: (§1) The assay of PAR2 interaction with anti-PAR2 antibodies was carried out using a Biacore T200 instrument (GE Healthcare). Anti-human IgG antibody (Human Antibody Capture Kit, GE Healthcare) was immobilised by amine coupling on a sensor chip CM3 (GE Healthcare) to a surface density of 3500 to 4500 resonance units (RU). Immobilisation was carried out at 25° C. in HBS-EP+ buffer (GE Healthcare). The buffer was then changed to 50 mM HEPES, pH 7.5, 150 mM NaCl, 0.02% LMNG, 0.002% CHS. Each cycle of the PAR2-antibody interaction assay consisted of antibody capture (100 nM antibody injected for 2 min at a flow rate of 5 μL/min), PAR2 injection (blank or 250 nM, with contact and dissociation times of 2 and 3 minutes, respectively, at a flow rate of 20 μl/minute), and chip surface regeneration (30 seconds at 20 μl/minute) using the regeneration solution from Human Antibody Capture Kit (GE Healthcare). […] Measurements between each experimental data set were within the acceptable margins for this methodology.
The antibodies were captured on anti-human IgG chip surface followed by injection of 250 nM PAR2. The data were fitted to 1:1 interaction model.

[2] = biological target: T1, PAR2-3: P157: 1-377, glycosylated, …; assay: SPR; IgG immobilised, detergent solubilised FL-N PAR2 StaR as analyte
Method: (§2) For three purified IgG1f_AEASS clones Y021171, Y022054 and Y022063 affinities to human PAR2-3 variant (P157: 1-377, glycosylated, pBacMamHisStrepII, full length) were determined by SPR immobilizing the IgG and probing with detergent (LMNG/CHS) solubilized FL-N PAR2 StaR. Affinities were 22 nM and 20 nM for Y022063 and Y021171, respectively.
as §1

[3] = biological target: T2, Wildtype human PAR2 expressed on cells (human, UniProt P55085 37-397); assay: cell-based or functional assay
T2 sequence: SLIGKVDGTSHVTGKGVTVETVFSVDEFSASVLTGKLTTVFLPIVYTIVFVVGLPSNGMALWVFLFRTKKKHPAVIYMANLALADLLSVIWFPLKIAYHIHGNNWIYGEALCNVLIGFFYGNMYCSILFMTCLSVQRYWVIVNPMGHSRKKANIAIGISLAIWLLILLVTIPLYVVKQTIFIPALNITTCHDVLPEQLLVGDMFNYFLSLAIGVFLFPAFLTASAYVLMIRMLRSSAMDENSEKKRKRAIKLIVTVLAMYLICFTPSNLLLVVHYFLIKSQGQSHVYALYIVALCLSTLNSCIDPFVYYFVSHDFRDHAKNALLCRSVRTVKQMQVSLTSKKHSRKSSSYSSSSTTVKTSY

[4] = biological target: T3, Mouse PAR2 on Flp-In CHO cells (mouse, UniProt P55086 39-399); assay: cell binding, flow cytometry/IntelliCyt
T3 construct: whole, on cells
T3 sequence (looked up): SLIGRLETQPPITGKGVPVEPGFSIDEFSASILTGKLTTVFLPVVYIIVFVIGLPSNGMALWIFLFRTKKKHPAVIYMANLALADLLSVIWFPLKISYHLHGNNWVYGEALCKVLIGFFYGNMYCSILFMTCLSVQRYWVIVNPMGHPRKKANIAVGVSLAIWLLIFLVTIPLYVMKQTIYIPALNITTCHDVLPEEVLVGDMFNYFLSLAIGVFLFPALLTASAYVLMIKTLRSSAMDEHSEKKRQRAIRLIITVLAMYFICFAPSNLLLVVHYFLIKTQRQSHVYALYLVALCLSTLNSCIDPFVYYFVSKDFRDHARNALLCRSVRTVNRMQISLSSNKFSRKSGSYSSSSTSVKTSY

[5] = biological target: T1, PAR2-3: P157: 1-377, glycosylated, …; assay: SPR Biacore; IgG captured on anti-human IgG, 100 nM PAR2 analyte; 1:1 model
Method: The antibodies were captured on anti-human IgG chip surface followed by injection of 100 nM PAR2. The data were fitted to 1:1 interaction model except for clone ‘Y021160’ in which case heterogeneous ligand model was used and component with slow dissociation was used for comparison.
as §2

[6] = biological target: T3, Mouse PAR2 on Flp-In CHO cells; assay: FACS titration on CHO mouse Par2 cells, RLU [continued) C]
Description: Binding events to cell surface expressed antigen were identified by flow cytometry using either crude E. coli lysates from the panning output or purified antibodies. High throughput primary screens of panning outputs from differential whole cell pannings (DWCP) were mainly performed on human wild type PAR2-expressing Flp-In CHO cells (Flp-In CHO_huPAR2), GNTI BacMam wild type PAR2 cells and GNTI BacMam truncated PAR2 StaR versus parental Flp-In CHO cells (PAR2 negative) or non-infected HEK293GNTI-cells. Candidates showing an elevated background binding to parental Flp-In CHO cells were ascribed as either non-specific or off-target binders. All steps were performed in FACS buffer including FCS and sodium azide to prevent potential receptor internalization. Cell suspensions were transferred into microtiter plates and antibody samples were added followed by subsequent incubation of plates at 4° C. Sample volume and cell-number were adjusted to the plate type used. Following incubation, cells were spun down and washed with FACS buffer. Fluorophore-conjugated secondary reagents were used for detection of bound antibodies. Plates were measured using the BD FACS Array or IntelliCyt HTFC/iQue System and data was analysed using FlowJo, ForeCyt or proprietary software tools (FIG. 3).

[7] = biological target: T2, Wildtype human PAR2 expressed on cells; assay: IntelliCyt flow cytometry, titration of IgG1f_AEASS on HEK Flp-In TRex 293_huPAR2 expression-induced cells, S/BG
Method: (§3) To evaluate species cross-reactivity and/or unwanted binding to counter-targets simultaneously, screening in 384-well plate format was performed using the HTFC/iQue screening platform from IntelliCyt. The HTFC/iQue Screening System was also used for evaluation of binding to multiple target cell lines or evaluation of unwanted/non-specific binding in parallel, in other words multiplexing. Different cell populations could be distinguished by pre-labelling with distinct amounts of fluorescent dyes, such as Calcein or Cell-Tracker Green, establishing a unique signature of fluorescence intensity for each cell population, thereby producing a fluorescence coding system. The color-coded cell lines were then physically combined and mixed together with antibodies to be tested. Individual cell-lines could be identified via the fluorescence of the respective cell-line that had been pre-labelled. Crude bacterial cell lysates were combined with cells and incubated for 1 hour at room temperature in the dark, shaking gently. Fluorescence measurement was performed with the IntelliCyt HTFC/iQue device. In between incubation steps, no washing was required. Raw data were evaluated with the help of the ‘ForeCyt’ software. After data acquisition, the cell lines from each sample could be identified according to their fluorescence signature and individually evaluated for antibody binding. […]

[8] = biological target: T4, V5His-huPAR2 on Flp-In CHO cells (human, UniProt P55085 37-397); assay: IntelliCyt flow cytometry, titration of IgG1f_AEASS on Flp-In CHO_V5His_huPAR2 cells, S/BG
T4 sequence: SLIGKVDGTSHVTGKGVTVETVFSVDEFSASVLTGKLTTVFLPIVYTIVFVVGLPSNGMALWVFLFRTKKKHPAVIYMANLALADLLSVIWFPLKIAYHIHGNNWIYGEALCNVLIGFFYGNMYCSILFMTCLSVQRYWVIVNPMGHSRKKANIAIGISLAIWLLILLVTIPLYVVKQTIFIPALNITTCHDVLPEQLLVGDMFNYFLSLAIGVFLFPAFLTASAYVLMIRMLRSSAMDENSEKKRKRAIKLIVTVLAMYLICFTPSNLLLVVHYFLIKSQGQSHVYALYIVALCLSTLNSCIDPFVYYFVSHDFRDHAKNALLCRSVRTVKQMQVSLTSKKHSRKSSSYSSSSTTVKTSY
Method: as §3

[9] = biological target: T5, Wildtype human PAR 1 (human, UniProt P25116 42-425); assay: IntelliCyt flow cytometry, titration of IgG1f_AEASS, S/BG
T5 construct: BacMam-infected HEK293f cells in the IP-One assay
T5 sequence: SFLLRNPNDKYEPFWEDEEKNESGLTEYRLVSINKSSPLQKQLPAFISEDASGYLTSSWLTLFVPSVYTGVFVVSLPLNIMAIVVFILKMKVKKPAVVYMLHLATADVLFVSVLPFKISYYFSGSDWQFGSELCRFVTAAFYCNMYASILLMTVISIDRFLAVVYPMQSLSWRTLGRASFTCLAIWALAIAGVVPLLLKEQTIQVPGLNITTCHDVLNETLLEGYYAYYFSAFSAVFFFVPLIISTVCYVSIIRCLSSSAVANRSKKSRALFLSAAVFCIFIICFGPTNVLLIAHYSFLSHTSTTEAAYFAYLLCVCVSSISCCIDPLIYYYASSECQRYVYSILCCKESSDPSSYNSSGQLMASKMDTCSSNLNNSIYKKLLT
Method: as §3

[10] = biological target: Rhesus PAR2 on cells (rhesus (Macaca mulatta)); assay: cell-based or functional assay
[11] = biological target: Cynomolgus PAR2 on BacMam-infected HEK293 cells (cynomolgus); assay: cell-based or functional assay
[12] = biological target: T2, Wildtype human PAR2 expressed on cells; assay: cell-based or functional assay; remark: listed apart in the source

B1: Y022054 (antibody, V domains shown)
VH: EVQLLESGGGLVQPGGSLRLSCAASGFTFSSYAISWVRQAPGKGLEWVSAISGSGGSTYYAESVKGRFTISRDNSKNTLYLQMNSLRAEDTAVYYCARGYAEFGVWGQGTLVTVSS
VL: DIQMTQSPSSLSASVGDRVTITCRASQSISSYLNWYQQKPGKAPKLLIYAASSLQSGVPSRFSGSGSGTDFTLTISSLQPEDFATYYCQQTWGGPQTFGQGTKVEIKR
Kd [1]: 2.5 nM
koff [1]: 0.00029 s⁻¹
kon [1]: 120000 M⁻¹ s⁻¹
fold higher affinity compared to Y022063 and Y021171 [2]: 10 fold
% Max Inhibition AP, IP-One [3]: 17%
binding result [4]: no binding

B2: Y022065 (antibody, human IgG1, lambda, V domains shown)
VH: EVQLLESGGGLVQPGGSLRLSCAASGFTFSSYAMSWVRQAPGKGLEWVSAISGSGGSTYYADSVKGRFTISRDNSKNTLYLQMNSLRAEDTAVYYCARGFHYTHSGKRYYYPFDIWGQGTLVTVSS
VL: QSALTQPASVSGSPGQSITISCTGTSSDVGSYNLVSWYQQHPGKAPKLMIYEGSKRPSGVSNRFSGSKSGNTASLTISGLQAEDEADYYCSQYATFIAFAVFGGGTKLTVLG
notes: also called clone Y022065; parental clone Y022065
Kd [5]: 5.3 nM
koff [5]: 0.00016 s⁻¹
kon [5]: 30000 M⁻¹ s⁻¹
binding result [6]: no binding
EC50 (read off the curve) [7]: ~7 nM
EC50 (read off the curve) [8]: ~4 nM
% Max Inhibition AP, IP-One [3]: 43%
binding result [9]: no binding (tested: 200 nM)
IC50 (nM), SLIGKV agonist challenge, Rhesus [10]: > 2000 nM
IC50 (nM), SLIGKV agonist challenge, Cyno [11]: > 2000 nM
IC50 (nM), SLIGKV agonist challenge, Human [12]: 264 nM
